# Reference: paper PMC6919630, “Novel cholinesterase paralogs of Schistosoma mansoni have perceived roles in cholinergic signalling and drug detoxification and are essential for parasite survival” (PLoS Pathogens, 2019)
# Tests used:
# SmBChE1 [1] = target: T1, SmBChE1 (Schistosoma mansoni, UniProt A0A3Q0KKW0); experiment: Ellman assay, inhibition of BcSCh hydrolysis; type: biochemical; conditions: BcSCh 2 mM; 20 min preincubation at RT; pH 7.4
# T1 construct: full length minus signal peptide, C-terminal 6-His tag (pPICZalphaA), secreted from Pichia pastoris X-33, IMAC purified; synthetic ORF
# CCCC(=O)SCC[N+](C)(C)C = experiment: purified protein; type: biochemical, Schistosoma mansoni; conditions: 0.1 M sodium phosphate, pH 7.4, 0.5 mM DTNB
# CC(=O)SCC[N+](C)(C)C = experiment: purified protein; type: biochemical, Schistosoma mansoni; conditions: 0.1 M sodium phosphate, pH 7.4, 0.5 mM DTNB
# SmAChE2 = target: T2, SmAChE2 (Schistosoma mansoni, UniProt A0A3Q0KMM5); experiment: Ellman assay, inhibition of AcSCh hydrolysis; type: biochemical; conditions: AcSCh 2 mM; 20 min preincubation at RT; pH 7.4; organophosphate
# T2 construct: full length minus signal peptide, C-terminal 6-His tag (pPICZalphaA), secreted from Pichia pastoris X-33, IMAC purified; synthetic ORF
# SmBChE1 [2] = target: T1, SmBChE1; experiment: Ellman assay, inhibition of BcSCh hydrolysis; type: biochemical; conditions: BcSCh 2 mM; 20 min preincubation at RT; pH 7.4; organophosphate
# SmAChE1 = target: T3, SmAChE1 (Schistosoma mansoni, UniProt Q71SU7); experiment: Ellman assay, inhibition of AcSCh hydrolysis; type: biochemical; conditions: AcSCh 2 mM; 20 min preincubation at RT; pH 7.4; organophosphate
# T3 construct: full length minus signal peptide, C-terminal 6-His tag (pPICZalphaA), secreted from Pichia pastoris X-33, IMAC purified; synthetic ORF
# T3 sequence (Q71SU7 entry or part of it): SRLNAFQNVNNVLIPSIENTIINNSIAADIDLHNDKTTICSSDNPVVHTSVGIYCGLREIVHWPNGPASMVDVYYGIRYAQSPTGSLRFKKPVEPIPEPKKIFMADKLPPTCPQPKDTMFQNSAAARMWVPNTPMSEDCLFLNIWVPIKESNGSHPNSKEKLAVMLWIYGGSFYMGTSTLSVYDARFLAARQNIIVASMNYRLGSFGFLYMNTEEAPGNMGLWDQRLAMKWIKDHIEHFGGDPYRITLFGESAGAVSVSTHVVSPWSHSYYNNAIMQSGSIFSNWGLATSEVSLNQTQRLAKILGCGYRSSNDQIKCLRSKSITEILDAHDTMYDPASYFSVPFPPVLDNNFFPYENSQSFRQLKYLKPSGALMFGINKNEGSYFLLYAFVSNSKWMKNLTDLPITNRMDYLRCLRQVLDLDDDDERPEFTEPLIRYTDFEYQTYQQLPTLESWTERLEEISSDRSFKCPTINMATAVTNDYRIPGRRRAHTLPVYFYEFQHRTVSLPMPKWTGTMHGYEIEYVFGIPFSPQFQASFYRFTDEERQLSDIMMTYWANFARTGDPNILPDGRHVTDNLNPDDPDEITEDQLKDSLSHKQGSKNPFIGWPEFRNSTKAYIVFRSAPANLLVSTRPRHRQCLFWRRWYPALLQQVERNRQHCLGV
# T1 sequence (A0A3Q0KKW0 entry or part of it): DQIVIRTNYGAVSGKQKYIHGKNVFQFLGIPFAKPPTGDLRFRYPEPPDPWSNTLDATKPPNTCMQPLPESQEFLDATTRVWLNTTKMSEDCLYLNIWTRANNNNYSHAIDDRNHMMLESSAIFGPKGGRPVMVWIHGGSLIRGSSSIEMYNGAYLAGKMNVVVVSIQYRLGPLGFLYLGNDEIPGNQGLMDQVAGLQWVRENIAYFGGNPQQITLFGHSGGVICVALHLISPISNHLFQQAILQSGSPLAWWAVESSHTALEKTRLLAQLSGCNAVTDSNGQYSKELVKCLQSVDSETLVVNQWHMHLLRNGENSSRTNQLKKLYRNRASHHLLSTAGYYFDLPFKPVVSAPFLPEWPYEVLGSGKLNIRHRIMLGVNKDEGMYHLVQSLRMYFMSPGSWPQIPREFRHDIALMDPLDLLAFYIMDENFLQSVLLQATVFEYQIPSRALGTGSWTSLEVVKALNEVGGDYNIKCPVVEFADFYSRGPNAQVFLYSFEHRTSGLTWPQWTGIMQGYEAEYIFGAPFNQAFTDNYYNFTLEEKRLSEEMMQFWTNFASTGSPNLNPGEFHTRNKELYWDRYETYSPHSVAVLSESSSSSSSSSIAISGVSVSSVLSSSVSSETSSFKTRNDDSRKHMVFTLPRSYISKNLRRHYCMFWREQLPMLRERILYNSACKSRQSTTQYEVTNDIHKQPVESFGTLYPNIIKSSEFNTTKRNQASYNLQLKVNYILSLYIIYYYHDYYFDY
# T2 sequence (A0A3Q0KMM5 entry or part of it): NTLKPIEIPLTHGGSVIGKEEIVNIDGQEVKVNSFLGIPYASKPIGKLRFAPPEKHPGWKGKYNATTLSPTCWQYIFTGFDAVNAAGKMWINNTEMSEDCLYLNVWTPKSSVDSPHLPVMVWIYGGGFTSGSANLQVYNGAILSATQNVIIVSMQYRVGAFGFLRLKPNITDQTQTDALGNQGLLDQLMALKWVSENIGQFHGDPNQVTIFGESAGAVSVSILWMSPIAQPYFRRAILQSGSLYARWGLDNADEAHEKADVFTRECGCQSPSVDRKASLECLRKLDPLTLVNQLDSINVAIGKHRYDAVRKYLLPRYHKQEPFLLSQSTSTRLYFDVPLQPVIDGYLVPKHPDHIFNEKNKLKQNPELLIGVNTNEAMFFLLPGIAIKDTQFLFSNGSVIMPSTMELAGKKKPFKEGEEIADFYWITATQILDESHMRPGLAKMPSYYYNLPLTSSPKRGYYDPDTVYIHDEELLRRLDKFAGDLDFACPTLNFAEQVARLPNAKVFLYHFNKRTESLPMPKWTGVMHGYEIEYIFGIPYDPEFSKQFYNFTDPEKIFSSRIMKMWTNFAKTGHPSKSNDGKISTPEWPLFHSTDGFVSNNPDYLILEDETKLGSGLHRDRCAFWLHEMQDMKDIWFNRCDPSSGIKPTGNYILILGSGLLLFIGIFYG
compound,measurement,setting,value
CC(C)NP(=O)(NC(C)C)OP(=O)(NC(C)C)NC(C)C [iso-OMPA],inhibition at 1 mM,SmBChE1 [1],"iso-OMPA, a specific inhibitor of BChE, only inhibited SmBChE1 activity"
SmBChE1 (Schistosoma mansoni),Km,CCCC(=O)SCC[N+](C)(C)C,34.38 ± 12.71 mM
same,Vmax,CCCC(=O)SCC[N+](C)(C)C,0.0017 ± 9e-05 µmol/min/mg
SmAChE1 (Schistosoma mansoni),Km,CC(=O)SCC[N+](C)(C)C,5.83 ± 1.62 mM
same,Vmax,CC(=O)SCC[N+](C)(C)C,0.00557 µmol/min/mg
SmAChE2 (Schistosoma mansoni),Km,CC(=O)SCC[N+](C)(C)C,10.87 ± 6.17 mM
same,Vmax,CC(=O)SCC[N+](C)(C)C,0.00559 µmol/min/mg
"COP(=O)(OC)OC=C(Cl)Cl [DDVP, 2,2-dichlorovinyl dimethyl phosphate]",inhibition at 1 μM,SmAChE2,preferred substrate activity of both SmAChE1 and SmAChE2 was inhibited by DDVP
same,"inhibition at 1, 5 and 10 μM",SmBChE1 [2],BChE activity of schistosome extracts and recombinant SmBChE1 significantly decreased in the presence of
same,inhibition at 1 μM,SmAChE1,preferred substrate activity of both SmAChE1 and SmAChE2 was inhibited by DDVP
